US9809653B2, “Anti-LAMP1 antibodies and antibody drug conjugates, and uses thereof” (SANOFI, priority 2012, dated 2017)

Experiments:
[1] = target: T1, LAMP1 in human tumoral and non-tumoral tissues (Homo sapiens, UniProt P11279); test: IHC on frozen-OCT / AFA human tumoral and non-tumoral tissues; settings: CR-LRB-010P, human non-tumoral colon and skin
T1 construct: from tissue; host or cells: human tumoral and non-tumoral tissue sections and PDX tumour sections (frozen-OCT, AFA, FFPE)
T1 sequence (P11279 29-417): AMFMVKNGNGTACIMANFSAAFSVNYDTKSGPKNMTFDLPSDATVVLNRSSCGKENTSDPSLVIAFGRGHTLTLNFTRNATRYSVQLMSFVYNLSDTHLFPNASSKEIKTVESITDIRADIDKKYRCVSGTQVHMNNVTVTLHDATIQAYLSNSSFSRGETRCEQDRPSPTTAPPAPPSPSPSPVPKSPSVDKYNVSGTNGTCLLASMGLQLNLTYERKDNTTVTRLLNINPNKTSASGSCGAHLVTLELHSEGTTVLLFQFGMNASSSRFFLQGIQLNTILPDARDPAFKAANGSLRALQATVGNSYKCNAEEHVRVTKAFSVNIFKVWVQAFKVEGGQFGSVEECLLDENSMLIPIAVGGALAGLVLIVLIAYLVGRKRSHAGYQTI
Experimental: Individual hybridoma supernatants raised against tumor tissue CR-LRB-010P were screened by IHC on a macroarray slide containing frozen sections of immunizing tumor (CR-LRB-010P), human non-tumoral colon and human non-tumoral skin. Frozen-OCT (from Optimal Cutting Temperature) specimens of non-tumoral colon and skin were obtained from surgical cases (commercial sources such as Asterand, US Biomax, Strasbourg Hospital). The automated immunostaining was performed unsing Ventana Discovery and Discovery XT automated systems (Ventana Medical Systems, Inc, USA).
Frozen 10 μm cryostat sections were incubated with IgG culture supernatants as primary antibody (unknown concentration, dilution ⅓ in Phosphate Buffer Saline, PBS) for 40 min at 37° C. Culture medium was used as negative control. A postfixation step with glutaraldehyde (0.05% in NaCl 0.9% w/v) for 4 min was done. The secondary antibody Affinipure rabbit anti-mouse IgG (315-005_008, Jackson Immunosearch Laboratories, Inc. USA) was used at 4.8 μg/mL and incubated for 12 min at 37° C. Immunostaining was done with UltraMap Red chromogenic detection kit according to manufacturers recommendations for 8 min. Cryostat sections were subsequently couterstaining with hematoxylin II (790-2208, Ventana Medical Systems, Inc USA) and bluing for 4 min (760-2037). […]
Sections immunostained with mAbs were analyzed by microscope (Nikon Eclipse E400). […]

[2] = target: T2, Hybrid LAMP1 / glycan-deleted LAMP1 transmembrane proteins (Mus musculus, UniProt P11438, A146K/E181G/G176S/K100R/K140R/K180R/L93T/N144D/N177S/S175N/T102A/Y92H); test: Binding onto membrane-anchored hybrid or mutated LAMP1 proteins (293-F cells) by flow cytometry; design: species or system human/mouse; settings: pXL6092 mLAMP1_hseq6-9-11_ΔGYQTI; Table 17 Experiment no2
T2 construct: expressed in transfected cells; host or cells: 293-F (HEK293-derived), transient transfection
T2 sequence (P11438 with tags, fused parts or gaps Y92H/L93T/K100R/T102A/K140R/N144D/A146K/S175N/G176S/N177S/K180R/E181G): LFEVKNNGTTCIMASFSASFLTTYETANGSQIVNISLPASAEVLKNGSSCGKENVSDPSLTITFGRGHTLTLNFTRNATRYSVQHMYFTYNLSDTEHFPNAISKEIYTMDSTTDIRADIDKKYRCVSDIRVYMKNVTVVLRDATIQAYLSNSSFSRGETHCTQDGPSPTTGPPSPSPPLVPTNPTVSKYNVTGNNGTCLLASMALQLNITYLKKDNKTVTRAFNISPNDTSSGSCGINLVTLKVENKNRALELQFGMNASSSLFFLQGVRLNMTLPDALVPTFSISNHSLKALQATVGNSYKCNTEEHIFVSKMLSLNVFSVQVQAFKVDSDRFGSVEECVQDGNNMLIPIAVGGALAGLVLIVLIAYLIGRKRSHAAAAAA
Experimental: Different LAMP1 proteins were expressed at the cell membrane of HEK293 cells after transient expression from mammalian plasmids encoding the entire coding sequence of LAMP1 deleted of the intracellular lysosome-targeting motif GYQTI and substituted by a 5-Ala repeat sequence.
Two days post transfection cells were processed, analyzed by flow cytometry (Guava® easyCyte™ 8HT) as mentioned in example 4.7, and the mean fluorescence was recorded. This fluorescence represents a semi-quantitative assessment of binding.

B1: MAb1: murine monoclonal anti-LAMP1 antibody, VH SEQ ID NO: 1, VL SEQ ID NO: 5 (antibody, V domains shown)
VH: QVQLQQSGAELVKPGASVKMSCKASGYIFTNYNIHWVKKSPGQGLEWIGAIYPGNGDAPYSQKFKDKATLTADKSSSTTYMQLSRLTSEDSAVYYCVRANWDVAFAYWGQGTLVSVSA
VL: DIQMTQSPPSLSASLGGKVTITCKASQDIDRYMAWYQDKPGKGPRLLIHDTSTLQPGIPSRFSGSGSGRDYSFSISNLEPEDIATYYCLQYDNLWTFGGGTKLEIK
modifications: Antibody Fragment; antibody fragment
IHC reactivity on frozen sections [1]: showed evidence of tumor-associated reactivity | Binding call [2]: Full binding | Mean fluorescence [2]: 499
